We go through one molecule from paper PMC2185574 (The Journal of Cell Biology, 2000).

The target of this assay is T1, 6xHis-tagged Mrs6p, wild-type (S. cerevisiae, UniProt P32864 1-603).
T1 sequence: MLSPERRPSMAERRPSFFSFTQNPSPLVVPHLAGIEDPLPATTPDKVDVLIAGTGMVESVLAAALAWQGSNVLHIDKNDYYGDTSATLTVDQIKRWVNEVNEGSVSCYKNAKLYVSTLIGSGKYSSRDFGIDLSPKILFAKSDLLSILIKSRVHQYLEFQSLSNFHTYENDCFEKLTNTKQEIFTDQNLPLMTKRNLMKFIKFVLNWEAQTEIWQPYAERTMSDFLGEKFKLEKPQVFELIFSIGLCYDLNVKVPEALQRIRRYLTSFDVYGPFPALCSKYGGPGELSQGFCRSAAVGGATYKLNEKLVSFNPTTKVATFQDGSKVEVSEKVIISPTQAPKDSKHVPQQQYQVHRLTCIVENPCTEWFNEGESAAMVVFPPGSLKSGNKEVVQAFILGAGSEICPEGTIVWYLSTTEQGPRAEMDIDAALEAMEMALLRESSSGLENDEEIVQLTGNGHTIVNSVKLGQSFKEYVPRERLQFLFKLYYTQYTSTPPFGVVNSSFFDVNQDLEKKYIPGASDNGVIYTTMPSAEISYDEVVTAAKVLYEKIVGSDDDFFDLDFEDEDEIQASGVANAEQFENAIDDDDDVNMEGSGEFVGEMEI
The assay can be described thus: other fluorescence titration.

B1: prenylated His6-tagged Rab3A (natural protein)
chain: MASATDSRYGQKESSDQNFDYMFKILIIGNSSVGKTSFLFRYADDSFTPAFVSTVGIDFKVKTIYRNDKRIKLQIWDTAGQERYRTITTAYYRGAMGFILMYDITNEESFNAVQDWSTQIKTYSWDNAQVLLVGNKCDMEDERVVSSERGRQLADHLGFEFFEASAKDNINVKQTFERLVDVICEKMSESLDTADPAVTGAKQGPQLSDQQVPPHQDCAC
modifications: prenylated (residues not stated)
On to B1, for which the Kd (usually a measure of binding affinity in units of concentration) was 320 nM.
